Reference: article PMC11903765, “ARR1 and AHP interactions in the multi-step phosphorelay system” (Frontiers in Plant Science, 2025)

What was measured:
[1] = biological target: biotinylated ARR1-REC-GARP (ARR1 residues 1-296), construct for BLI (Arabidopsis thaliana) (UniProt Q940D0); test: BLI; biotinylated ARR1-REC-GARP immobilised on Octet SA biosensors, AHPs as analytes; fit of the binding kinetics; 20 mM HEPES/NaOH pH 7.0, 50 mM NaCl, 50 mM KCl, 0.5 mM TCEP, 0.5% BSA, 0.05% Tween 20; 25°C
[2] = biological target: biotinylated ARR1-REC-GARP (ARR1 residues 1-296), construct for BLI (Arabidopsis thaliana) (UniProt Q940D0); test: BLI; biotinylated ARR1-REC-GARP immobilised on Octet SA biosensors, AHPs as analytes; fit of the steady-state data; 20 mM HEPES/NaOH pH 7.0, 50 mM NaCl, 50 mM KCl, 0.5 mM TCEP, 0.5% BSA, 0.05% Tween 20; 25°C
[3] = biological target: T1, ARR1-REC-GARP (ARR1 residues 38-296), construct for structural studies (Arabidopsis thaliana, UniProt Q940D0 38-296); test: crystal structure; complex from mixing 1 ARR1 : 1.5 AHP1, purified by SEC; crystals from Morpheus G11, pH 8.5, 32.5 mg/mL; 2.9 Å; two complexes in the asymmetric unit; conditions: both partners purified
T1 construct: ARR1, Arabidopsis thaliana, UniProt Q940D0, residues 38-296: REC domain (38-158), linker (159-235, not visible in the map), GARP motif (236-296); cloned into pMCSG53; TEV protease was not able to cleave the His-tag, so it stayed on the protein; also called ARR1-RG; source: E. coli BL21 Gold, purified (Ni-NTA; then SEC of the complex)
T1 sequence (looked up): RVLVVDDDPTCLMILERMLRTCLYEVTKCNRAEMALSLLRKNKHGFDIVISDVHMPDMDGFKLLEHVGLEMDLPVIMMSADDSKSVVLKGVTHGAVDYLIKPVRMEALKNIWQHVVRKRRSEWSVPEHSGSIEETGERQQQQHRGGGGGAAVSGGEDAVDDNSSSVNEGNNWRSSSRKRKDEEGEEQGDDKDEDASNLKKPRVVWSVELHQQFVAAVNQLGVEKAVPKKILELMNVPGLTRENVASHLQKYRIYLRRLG

[4] = biological target: T2, biotinylated ARR1-REC-GARP (ARR1 residues 1-296), construct for BLI (Arabidopsis thaliana, UniProt Q940D0 1-296, biotin on the Avi-tag (by co-expressed BirA)); test: BLI; biotinylated ARR1-REC-GARP immobilised on Octet SA biosensors, AHPs as analytes; fit of the binding kinetics; 20 mM HEPES/NaOH pH 7.0, 50 mM NaCl, 50 mM KCl, 0.5 mM TCEP, 0.5% BSA, 0.05% Tween 20; 25°C; conditions: both partners purified
T2 construct: ARR1, Arabidopsis thaliana, UniProt Q940D0, residues 1-296 (REC domain and GARP motif); cloned into pMCSG62, which provides the Avi-tag; The results define ARR1-RG as 38-296; the methods give 1-296 for the BLI construct; also called ARR1-RG; biotinylated variant of ARR1-RG; source: E. coli BL21 Gold, co-expressed with BirA, purified (Ni-NTA)
T2 sequence (looked up): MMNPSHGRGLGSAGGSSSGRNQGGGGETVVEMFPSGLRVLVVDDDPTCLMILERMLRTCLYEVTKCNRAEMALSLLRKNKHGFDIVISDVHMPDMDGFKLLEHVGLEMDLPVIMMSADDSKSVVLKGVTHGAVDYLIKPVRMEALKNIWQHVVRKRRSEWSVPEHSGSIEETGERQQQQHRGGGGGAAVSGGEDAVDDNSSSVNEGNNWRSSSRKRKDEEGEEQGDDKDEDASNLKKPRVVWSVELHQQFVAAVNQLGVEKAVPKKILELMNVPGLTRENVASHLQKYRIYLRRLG

[5] = biological target: T2, biotinylated ARR1-REC-GARP (ARR1 …); test: BLI; biotinylated ARR1-REC-GARP immobilised on Octet SA biosensors, AHPs as analytes; fit of the steady-state data; 20 mM HEPES/NaOH pH 7.0, 50 mM NaCl, 50 mM KCl, 0.5 mM TCEP, 0.5% BSA, 0.05% Tween 20; 25°C; conditions: both partners purified

Molecule	Kd [1] [nM]	koff [1] [s⁻¹]	kon [1] [M⁻¹ s⁻¹]	Kd [2] [nM]	stoichiometry N [3]	Kd [4] [nM]	koff [4] [s⁻¹]	kon [4] [M⁻¹ s⁻¹]	Kd [5] [nM]
AHP2 (Arabidopsis histidine-containing phosphotransfer protein 2) (natural protein)	160	0.0913	573000	160					
AHP3 (Arabidopsis histidine-containing phosphotransfer protein 3) (natural protein)	174	0.0917	522000	175					
AHP4 (Arabidopsis histidine-containing phosphotransfer protein 4) (natural protein)	166	0.06	360000	170					
AHP5 (Arabidopsis histidine-containing phosphotransfer protein 5) (natural protein)	152	0.089	588000	150					
AHP1 (Arabidopsis histidine-containing phosphotransfer protein 1), full length (natural protein, Arabidopsis thaliana, UniProt Q9ZNV9 1-154, looked up, AHP1, Arabidopsis thaliana, UniProt Q9ZNV9, full-length protein cloned from A. thaliana cDNA into pMCSG53; Unphosphorylated; source: E. coli BL21 Gold, purified (Ni-NTA, TEV digestion, second Ni-NTA, SEC)) MDLVQKQKSLQDYTKSLFLEGILDSQFLQLQQLQDESNPDFVSQVVTLFFQDSDRILNDLSLSLDQQVVDFKKVDPHVHQLKGSSSSIGAQRVKNACVVFRSFCEQQNVEACHRCLQQVKQEYYLVKNRLETLFKLEQQIVASGGMIPAVELGF					1	94	0.0423	444000	94
